Assay results published in patent publication EP4628507A1 (Jiangsu Hengrui Pharmaceuticals Co., Ltd., dated 2025).
Read-outs that look alike come from different tables or passages of the source.

Key:
[1] = target: T1, human 4-1BB on the surface of HEK293-Hu4-1BB cells (human, UniProt Q07011 24-255); experiment: cell-based or functional assay
[2] = target: T1, human 4-1BB on the surface of …; experiment: flow cytometry on HEK293-Hu4-1BB cells
[3] = target: T1, human 4-1BB on the surface of …; experiment: flow cytometry on HEK293-Hu4-1BB cells; remark: listed apart in the source
[4] = target: T1, human 4-1BB on the surface of …; experiment: cell-based or functional assay; remark: listed apart in the source

T1 sequence (Q07011 24-255): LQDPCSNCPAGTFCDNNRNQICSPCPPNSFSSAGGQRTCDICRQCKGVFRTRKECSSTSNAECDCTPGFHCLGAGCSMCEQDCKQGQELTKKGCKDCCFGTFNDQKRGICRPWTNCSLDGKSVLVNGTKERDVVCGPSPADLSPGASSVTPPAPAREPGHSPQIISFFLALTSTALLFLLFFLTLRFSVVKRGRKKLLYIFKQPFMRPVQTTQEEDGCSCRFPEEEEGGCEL

B1: Urelumab (antibody, V domains shown)
VH: QVQLQQWGAGLLKPSETLSLTCAVYGGSFSGYYWSWIRQSPEKGLEWIGEINHGGYVTYNPSLESRVTISVDTSKNQFSLKLSSVTAADTAVYYCARDYGPGNYDWYFDLWGRGTLVTVSS
VL: EIVLTQSPATLSLSPGERATLSCRASQSVSSYLAWYQQKPGQAPRLLIYDASNRATGIPARFSGSGSGTDFTLTISSLEPEDFAVYYCQQRSNWPPALTFGGGTKVEIK
[1]
  Fold change in Emax, FcγRIIb-mediated activation of HEK293-4-1BB cells: 2.61 fold
  Fold change in Emax, activation of HEK293-4-1BB cells (no FcγRIIb): 1.7 fold
[2]
  EC50: 1.64 nM
[3]
  EC50: 1.18 nM
[4]
  EC50, 4-1BB/NF-κB luciferase reporter, FcγRIIb cross-linking: 0.027 nM
  EC50, 4-1BB/NF-κB luciferase reporter, no FcγRIIb cross-linking: 2.19 nM
  Emax, 4-1BB/NF-κB luciferase reporter, FcγRIIb cross-linking: 9.39 relative to the antibody-free group
  Emax, 4-1BB/NF-κB luciferase reporter, no FcγRIIb cross-linking: 4.3 relative to the antibody-free group
